In US20040147432A1 (MERCK, published 2004):
Bridges are numbered along the chain shown (N, C = ends). Where no end group is shown, it is not given here. [ ]: non-standard residue; d: D form. Arg(NO2) = N=C(NCCC[C@H](N)C(=O)O)N[N+](=O)[O-]

B1: truncated form of human MCH, SEQ. ID. NO. 2 (peptide)
peptide: Ac-RCMLGRVYRPC-NH2
modifications: disulfide 2-11 (inferred)
notes: positions numbered 6-16 as in hMCH
B2: human MCH (melanin-concentrating hormone), SEQ. ID. NO. 1 (ligand)
peptide: DFDMLRCMLGRVYRPCWQV
modifications: disulfide 7-16 (inferred)
notes: cyclic 19-amino acid peptide; also called hMCH; mammalian MCH
B3: SEQ. ID. NO. 57 (peptide)
peptide: DFDMLRCMLGRVFRPCYQV
modifications: disulfide 7-16
notes: label prints Tyr^17 while the radioligand is Phe^13, Tyr^19; also called Phe^13, Tyr^17
B4: SEQ. ID. NO. 48 (peptide)
peptide: DFDMLRCMAGRVYRPCWQV
modifications: disulfide 7-16
notes: also called Ala^9
B5: SEQ. ID. NO. 54 (peptide)
peptide: DFDMLRCMLGRVYRPCAQV
modifications: disulfide 7-16
notes: also called Ala^17
B6: SEQ. ID. NO. 44 (peptide)
peptide: DFDALRCMLGRVYRPCWQV
modifications: disulfide 7-16
notes: also called Ala^4
B7: SEQ. ID. NO. 50 (peptide)
peptide: DFDMLRCMLGRAYRPCWQV
modifications: disulfide 7-16
notes: also called Ala^12
B8: SEQ. ID. NO. 43 (peptide)
peptide: DFAMLRCMLGRVYRPCWQV
modifications: disulfide 7-16
notes: also called Ala^3
B9: SEQ. ID. NO. 53 (peptide)
peptide: DFDMLRCMLGRVYRACWQV
modifications: disulfide 7-16
notes: also called Ala^15
B10: SEQ. ID. NO. 49 (peptide)
peptide: DFDMLRCMLGAVYRPCWQV
modifications: disulfide 7-16
B11: SEQ. ID. NO. 45 (peptide)
peptide: DFDMARCMLGRVYRPCWQV
modifications: disulfide 7-16
notes: also called Ala^5
B12: SEQ. ID. NO. 55 (peptide)
peptide: DFDMLRCMLGRVYRPCWAV
modifications: disulfide 7-16
notes: also called Ala^18
B13: SEQ. ID. NO. 46 (peptide)
peptide: DFDMLACMLGRVYRPCWQV
modifications: disulfide 7-16
notes: also called Ala^6
B14: SEQ. ID. NO. 52 (peptide)
peptide: DFDMLRCMLGRVYAPCWQV
modifications: disulfide 7-16
notes: also called Ala^14
B15: SEQ. ID. NO. 51 (peptide)
peptide: DFDMLRCMLGRVARPCWQV
modifications: disulfide 7-16
notes: also called Ala^13
B16: SEQ. ID. NO. 56 (peptide)
peptide: DFDMLRCMLGRVYRPCWQA
modifications: disulfide 7-16
notes: also called Ala^19
B17: SEQ. ID. NO. 47 (peptide)
peptide: DFDMLRCALGRVYRPCWQV
modifications: disulfide 7-16
B18: SEQ. ID. NO. 40 (peptide)
peptide: XCMLGRVYRPC
modifications: not fully specified; (?NH2)-Arg at position 6
B19: SEQ. ID. NO. 37 (peptide)
peptide: Ac-RCML[dA][Arg(NO2)]VYRPC-NH2
modifications: disulfide 2-11 (inferred)
notes: also called D-Ala^10, Arg(NO2)^11

Biological target: T1, human melanin concentrating hormone type 2 receptor (MCH-2R) (human, UniProt Q969V1 1-340)
T1 construct: also called MCH-R2
Assay: SPA competition with [125I]-human MCH (Phe13, Tyr19) on receptor membranes
Description: (§1) For the SPA-based assay, WGA-PVT beads (NEN Life Sciences Products) were resuspended in Dulbecco's PBS with calcium and magnesium (500 mg beads in 4 ml PBS). […] The suspension was mixed gently for 20 minutes, 12.3 ml of assay buffer and protease inhibitors were added (final concentration given): 2 μg/ml leupeptin, 10 μM phosphoramidon, 40 μg/ml bacitracin, 5 μg/ml aprotinin, 0.1 mM Pefabloc.
(§2) Coated beads were kept on ice until use. […] Binding reactions were allowed to proceed at room temperature for 3 hours. Quantitation was performed by scintillation counting (TopCount device).

T1 sequence (Q969V1 whole entry, form in doubt): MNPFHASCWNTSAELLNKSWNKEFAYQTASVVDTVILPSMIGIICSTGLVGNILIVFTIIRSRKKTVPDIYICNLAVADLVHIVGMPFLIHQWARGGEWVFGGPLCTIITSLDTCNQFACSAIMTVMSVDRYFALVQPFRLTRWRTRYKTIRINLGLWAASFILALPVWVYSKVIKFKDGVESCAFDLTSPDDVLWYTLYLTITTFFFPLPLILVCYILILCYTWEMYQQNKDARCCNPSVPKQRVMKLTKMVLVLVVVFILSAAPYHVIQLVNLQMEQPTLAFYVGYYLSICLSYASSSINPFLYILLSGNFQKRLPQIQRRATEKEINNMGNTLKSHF

Binder | IC50 [nM]
B1 | 2
B2 | 0.5

Biological target: T2, human MCH-1R (human, UniProt Q99705 1-353)
T2 construct: also called MCH-R1
Assay: as above
Description: as §1, §2

T2 sequence (Q99705 whole entry, form in doubt): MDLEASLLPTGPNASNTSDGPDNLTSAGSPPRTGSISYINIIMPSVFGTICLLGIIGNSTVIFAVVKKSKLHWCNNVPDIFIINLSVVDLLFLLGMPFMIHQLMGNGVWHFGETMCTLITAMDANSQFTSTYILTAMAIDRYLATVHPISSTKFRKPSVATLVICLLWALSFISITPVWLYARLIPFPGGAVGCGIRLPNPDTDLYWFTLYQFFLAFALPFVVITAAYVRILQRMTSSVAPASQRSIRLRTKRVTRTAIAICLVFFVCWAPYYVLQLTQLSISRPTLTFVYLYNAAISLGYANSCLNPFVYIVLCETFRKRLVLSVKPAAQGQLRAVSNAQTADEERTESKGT

Binder | IC50 [nM]
B1 | 0.5

Biological target: T1, human melanin concentrating hormone …
Assay: cell-based or functional assay

Binder | Activation % at 10 µM (aequorin functional assay) [%] | EC50 (aequorin functional assay) [nM]
B3 | 92 | 1.5
B2 | 100 | 44.7
B4 | 92 | 95.7
B5 | 95 | 54.2
B6 | 100 | 38.9
B7 | 98 | 83.6
B8 | 95 | 57.2
B9 | 96 | 84.2
B10 |  | > 1000
B11 | 94 | 17.9
B12 | 97 | 80.8
B13 | 76 | 853
B14 | 81 | 186
B15 |  | > 1000
B16 | 99 | 58.9
B17 | 94 | 125

Biological target: T2, human MCH-1R
Assay: cell-based or functional assay

Binder | Activation % at 10 µM (aequorin functional assay) [%] | EC50 (aequorin functional assay) [nM]
B3 | 97 | 40
B2 | 100 | 
B4 | 96 | 22
B5 | 100 | 6.8
B6 | 97 | 12.7
B7 | 95 | 38.3
B8 | 97 | 30.2
B9 | 99 | 34.7
B10 | 24 | 5240
B11 | 96 | 20.3
B12 | 99 | 36.1
B13 | 81 | 161
B14 | 97 | 28.3
B15 | 20 | 2300
B16 | 100 | 17.4
B17 | 56 | 731

Biological target: T1, human melanin concentrating hormone …
Assay: cell-based or functional assay
Remark: another data set of the same source

Binder | Activation % at 10 µM (aequorin functional assay) [%] | EC50 (aequorin functional assay) [nM]
B18 | 103 | 
B2 | 100 | 30.7

Biological target: T2, human MCH-1R
Assay: cell-based or functional assay
Remark: another data set of the same source

Binder | Activation % at 10 µM (aequorin functional assay) [%] | EC50 (aequorin functional assay) [nM]
B18 | 49 | 
B1 | 99 | 20
B2 | 100 | 

Biological target: T2, human MCH-1R
Assay: cell-based or functional assay
Remark: another data set of the same source

Binder | Activation % at 10 µM (aequorin functional assay) [%] | EC50 (aequorin functional assay) [nM]
B19 | 0.1 | > 10000

Biological target: T1, human melanin concentrating hormone …
Assay: SPA competition with [125I]-human MCH (Phe13, Tyr19) on receptor membranes
Remark: another data set of the same source
Description: as §1, §2

Binder | IC50 [nM]
B3 | 0.07
B2 | 0.9
B4 | 9.5
B5 | 5.1
B6 | 2.4
B7 | 25
B8 | 1.2
B9 | 19
B10 | 290
B11 | 2
B12 | 9.5
B13 | 200
B14 | 62
B15 | 670
B16 | 8.7
B17 | 40

Biological target: T2, human MCH-1R
Assay: as above
Remark: another data set of the same source
Description: as §1, §2

Binder | IC50 [nM]
B3 | 0.6
B4 | 0.9
B5 | 0.1
B6 | 0.5
B7 | 0.9
B8 | 0.5
B9 | 1.9
B10 | 169
B11 | 0.3
B12 | 0.7
B13 | 4.5
B14 | 1.4
B15 | 253
B16 | 0.4
B17 | 40.1

Biological target: T1, human melanin concentrating hormone …
Assay: cell-based or functional assay
Remark: another data set of the same source

Binder | Activation % at 10 µM (aequorin functional assay) [%] | EC50 (aequorin functional assay) [nM]
B19 | 34 | 260
B2 | 100 | 30.7

Biological target: T2, human MCH-1R
Assay: cell-based or functional assay
Remark: another data set of the same source

Binder | Activation % at 10 µM (aequorin functional assay) [%] | EC50 (aequorin functional assay) [nM]
B1 | 99 | 20
B2 | 100 | 

Biological target: T1, human melanin concentrating hormone …
Assay: SPA competition with [125I]-human MCH (Phe13, Tyr19) on receptor membranes
Remark: another data set of the same source
Description: as §1, §2

Binder | IC50 [nM]
B19 | 490
B1 | 2
B2 | 0.5

Biological target: T2, human MCH-1R
Assay: as above
Remark: another data set of the same source
Description: as §1, §2

Binder | IC50 [nM]
B1 | 1.4
